Columns and labels:
[1] = Specific activity, units of UFH neutralized per mg; assay type: biochemical; settings: units of UFH exactly neutralized per milligram
Source text: Since the toxicity of both PS and R15 correlates with their heparin antagonism capacity (i.e., potency), the units used for PS and R15 in most experiments are U·mL^-1 or U·kg^-1. Employing activity units (U) allows for a more scientifically rigorous comparison of the pharmacokinetic parameters of PS and R15 under equivalent activity levels (i.e., equivalent heparin antagonism capacity).
The specific activity of PS is 150 U·mg^-1, meaning that each milligram of PS can exactly neutralize 150 units of UFH. The specific activity of R15 is 170 U·mg^-1, meaning that each milligram of R15 can exactly neutralize 170 units of UFH. Therefore, expressing the concentration of PS as 1 U·mL^-1 denotes that each milliliter of the medium contains sufficient PS to neutralize 1 unit of UFH, and the same applies to R15.

[2] = Stability in rat plasma after three freeze-thaw cycles; assay type: in vitro ADME; settings: for RE%: plasma sample, freeze-thaw three cycles in -20℃, n=6; for Measured concentration after storage, Mean ± SD / RE (%) versus nominal concentration: rat plasma, three freeze (−80°C)-thaw (25°C) cycles; for Measured concentration after storage, Mean ± SD: n = 6
Description: (§1) Processing of Plasma Samples: 100 μL of the unknown plasma sample was added to 500 μL of 75% methanol (methanol: water = 75:25, v/v) and vortex-mixed for 5 seconds. The mixture was then centrifuged at 12,000 r/min for 10 minutes at 25°C. The supernatant (500 μL) was collected and dried under nitrogen at 60°C. Subsequently, UFH (0.14 U·mL^-1 for PS and 0.15 U·mL^-1 for R15; 120 μL) was added, and the mixture was vigorously shaken at room temperature for 10 minutes. The residual UFH content was measured using the Heparin Anti-FXa assay kit.
(§2) The detailed procedure is as follows: Accurately pipette 40 μL of the sample into a 96-well plate. Place the plate in a microplate shaker. Using a multichannel pipette, add 40 μL of reagent R1 and mix by shaking. Incubate at 37 °C for exactly 3 minutes (start timing upon addition of R1; at 50 seconds, begin shaking with the microplate shaker for 1 minute, then place the plate in the incubator). Remove the 96-well plate from the incubator and place it on the open microplate shaker. Using a multichannel pipette, add 40 μL of reagent R2 to each well and incubate at 37 °C for 6 minutes (after adding R2, at 3 minutes and 50 seconds, open the microplate shaker and shake for 4 minutes, then return the plate to the incubator). Remove the 96-well plate from the incubator and place it on the open microplate shaker. Quickly add 40 μL of reagent R3 using a multichannel pipette and shake until 9 minutes and 10 seconds. At 9 minutes and 30 seconds, add 80 μL of 20% acetic acid to each well to terminate the reaction. Measure the absorbance at 405 nm using a microplate reader (Multiskan FC, Thermo Fisher US).
Two concentration levels (low and high QC) were evaluated for validation of storage stability and freeze/thaw stability. Two concentration levels of PS and R15 (low and high QC) in blank rat plasma were prepared (n = 6), respectively. Samples in rats’ plasma were determined after storage at room temperature (25°C ± 1°C) for 30 min. […] Stock solution of PS and R15 were stored at 4°C for a week. All the samples mentioned above were processed by calibration curves with adequate QC samples diluted from newly prepared stock solution of PS and R15, followed by procedure of sample determination (see “Sample Preparation”), respectively.

[3] = Stability in rat plasma at room temperature for 30 min; assay type: in vitro ADME; settings: for RE%: plasma sample, room temperature (25℃) for 30 min, n=6; for Measured concentration after storage, Mean ± SD / RE (%) versus nominal concentration: rat plasma, room temperature (25°C ± 1°C) for 30 min; for Measured concentration after storage, Mean ± SD: n = 6
Description: as §1, §2
(§3) Two concentration levels (low and high QC) were evaluated for validation of storage stability and freeze/thaw stability. Two concentration levels of PS and R15 (low and high QC) in blank rat plasma were prepared (n = 6), respectively. Samples in rats’ plasma were determined after storage at room temperature (25°C ± 1°C) for 30 min. Samples in rats’ plasma were under three freeze (−80°C)-thaw (25°C) cycles. Stock solution of PS and R15 were stored at 4°C for a week. All the samples mentioned above were processed by calibration curves with adequate QC samples diluted from newly prepared stock solution of PS and R15, followed by procedure of sample determination (see “Sample Preparation”), respectively.

[4] = Stability of stock solution at 4°C for a week; assay type: physicochemical; settings: for Measured concentration after storage, Mean ± SD: stock solution (10 mg·mL^-1 in deionized water) stored 1 week at 4°C, n = 6; for Mean determined concentration, stability of stock solution / RE%: stock solution for 1 week; for Mean determined concentration, stability of stock solution: mean of n=6; for RE%: n=6; for RE (%) versus nominal concentration: stock solution stored 1 week at 4°C
Description: Preparation of Stock Solutions: Appropriate amounts of PS and R15 powders were accurately weighed and dissolved in deionized water to obtain stock solutions at 10 mg·mL^-1, respectively. This solution was stored in a refrigerator at 4 °C and replaced regularly.
as §3

[5] = nominal 0.7 μg·mL^-1, anti-FXa read-out at 405 nm
[6] = nominal 1.5 μg·mL^-1, anti-FXa read-out at 405 nm

Protamine sulfate [PS] gave a specific activity [1] of 150 U·mg^-1, an RE% ([2]; nominal 0.70 μg/mL) of 10.71% and an RE% ([2]; nominal 1.50 μg/mL) of 5.78%. For the same substance, the “Measured concentration after storage, Mean ± SD” value [2, 5] was 0.78 ± 0.02 µg/mL, the “RE (%) versus nominal concentration” value ([2]; nominal 0.7 μg·mL^-1, n = 6) was 10.71% and the “Measured concentration after storage, Mean ± SD” value [2, 6] was 1.59 ± 0.04 µg/mL. For the same substance, the “RE (%) versus nominal concentration” value ([2]; nominal 1.5 μg·mL^-1, n = 6) was 5.78%, the RE% ([3]; nominal 0.70 μg/mL) was 8.10% and the RE% ([3]; nominal 1.50 μg/mL) was 4.44%. The “Measured concentration after storage, Mean ± SD” value [3, 5] was 0.76 ± 0.01 µg/mL, the “RE (%) versus nominal concentration” value ([3]; nominal 0.7 μg·mL^-1, n = 6) was 8.10% and the “Measured concentration after storage, Mean ± SD” value [3, 6] was 1.57 ± 0.09 µg/mL. For the same substance, the “RE (%) versus nominal concentration” value ([3]; nominal 1.5 μg·mL^-1, n = 6) was 4.44%, the “Measured concentration after storage, Mean ± SD” value ([4]; then diluted to nominal 0.7 μg·mL^-1, anti-FXa read-out) was 0.59 ± 0.02 µg/mL and the “Measured concentration after storage, Mean ± SD” value ([4]; then diluted to nominal 1.5 μg·mL^-1, anti-FXa read-out) was 1.44 ± 0.04 µg/mL. The “Mean determined concentration, stability of stock solution” value ([4]; nominal 0.7 μg/mL) was 0.59 µg/mL, the “RE%” value ([4]; nominal 0.7 μg/mL) was -15.2% and the “Mean determined concentration, stability of stock solution” value ([4]; nominal 1.5 μg/mL) was 1.44 µg/mL. For the same substance, the “RE%” value ([4]; nominal 1.5 μg/mL) was -4.1%, the “RE (%) versus nominal concentration” value ([4]; nominal 0.7 μg·mL^-1, n = 6) was −15.2% and the “RE (%) versus nominal concentration” value ([4]; nominal 1.5 μg·mL^-1, n = 6) was −4.1%.

From paper PMC12503259, “Establishment of an in vivo analytical method for detecting total anti-UFH activity and pharmacokinetic study in PS and R15 in rats” (PLOS One, 2025)
